Measurements as given in patent publication US20170000909A1, “ENZYME DIRECTED ASSEMBLY OF PARTICLE THERANOSTICS” (The Regents of the University of California, priority 2011, published 2017).
Where no end group is shown, it is not given here.

Molecular target: T1, MMP-9 (Homo sapiens, UniProt P14780)
T1 construct: purchased Calbiochem
Assay: MMP-9 cleavage efficiency assay (RP-HPLC)
Format: biochemical
Conditions: 120 μM, MMP-9 24 hrs, disappearance of peak at 29 minutes
Procedure: To 5 μL of enzyme was added 0.4 μL of a 24 mM π-aminophenyl mercuric acetate solution in freshly prepared 0.1 M NaOH. The enzyme solution was heated at 37° C. for 2 hrs prior to use.
120 μM of M1 (with respect to peptide) and 120 μM of Peptide-1 were treated with MMP-9 (100 μU, 1.25 μL) for 24 hrs. The control was performed using 120 μM of Peptide-1 without treatment with MMP-9. These samples were then analyzed by RP-HPLC following inactivation of MMP-9 at 65° C. for 20 mins (FIG. 21A). Peak A is the intact, full length Peptide-1 without treatment with MMP-9, and Peak B is the large fragment of Peptide-1 cleaved by MMP-9 as confirmed by MALDI-MS shown in FIG. 21B, left.

T1 sequence (P14780 107-707 limits assumed): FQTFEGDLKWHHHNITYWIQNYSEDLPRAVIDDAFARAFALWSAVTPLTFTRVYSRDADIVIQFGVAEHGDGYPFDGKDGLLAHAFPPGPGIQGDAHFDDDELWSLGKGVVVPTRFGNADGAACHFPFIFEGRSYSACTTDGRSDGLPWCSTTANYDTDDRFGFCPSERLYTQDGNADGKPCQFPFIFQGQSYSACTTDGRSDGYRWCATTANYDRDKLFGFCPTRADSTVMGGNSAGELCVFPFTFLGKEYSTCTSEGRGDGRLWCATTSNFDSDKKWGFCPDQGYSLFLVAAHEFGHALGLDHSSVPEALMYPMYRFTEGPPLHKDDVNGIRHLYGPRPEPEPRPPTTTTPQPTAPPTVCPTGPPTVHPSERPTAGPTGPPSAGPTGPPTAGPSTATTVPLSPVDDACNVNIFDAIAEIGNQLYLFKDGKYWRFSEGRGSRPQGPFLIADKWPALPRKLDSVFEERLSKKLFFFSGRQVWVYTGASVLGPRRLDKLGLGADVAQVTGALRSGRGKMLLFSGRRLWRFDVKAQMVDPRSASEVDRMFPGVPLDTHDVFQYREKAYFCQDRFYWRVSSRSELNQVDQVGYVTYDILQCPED

Sequence: GPLGLAGKWAAAAKAAAAK [Peptide-1]
- MMP-9 cleavage efficiency: quantitative
